From patent publication US20260347484 (published 2026) come the findings set out here.

In general, Kd refers to the free concentration of one partner at which half of the binding sites on the other are occupied at equilibrium, for simple one-to-one binding.

The target in this assay is human IGF-1R (human, UniProt P08069). The assay is described as follows: BLI.

B1: PHP1003-3 (designed binder)
chain 1: QVQLQQSGPGLVKPSQTLSLTCTVSGWSISGGWLWNWIRQPPGKGLQWIGWISWDGTNNWKPSLKDRVTISVDTSKNQFSLKLSSVTAADTAVWWCARWGRVFFDWWGQGTLVTVSS
chain 2: DIVMTQSPLSLPVTPGQPASISCRSSQSIVHSNGNTWLQWWLQKPGQSPQLLIWKVSNRLWGVPDRFSGSGSGTDFTLKISRVQAQDVGVWWCFQGSHVPWTFGQGTKVQIK
The molecule B1 had a Kd of 1.85 nM.
